Results taken from patent US8440430, “Modified dicer polypeptide and methods of use thereof” (The Regents of the University of California).

T1: ΔDEAD human Dicer (lacks DExD/H-box domain, aa 1-604 deleted) (Homo sapiens, UniProt Q9UPY3 SEQ:1-1318)
T1 chain: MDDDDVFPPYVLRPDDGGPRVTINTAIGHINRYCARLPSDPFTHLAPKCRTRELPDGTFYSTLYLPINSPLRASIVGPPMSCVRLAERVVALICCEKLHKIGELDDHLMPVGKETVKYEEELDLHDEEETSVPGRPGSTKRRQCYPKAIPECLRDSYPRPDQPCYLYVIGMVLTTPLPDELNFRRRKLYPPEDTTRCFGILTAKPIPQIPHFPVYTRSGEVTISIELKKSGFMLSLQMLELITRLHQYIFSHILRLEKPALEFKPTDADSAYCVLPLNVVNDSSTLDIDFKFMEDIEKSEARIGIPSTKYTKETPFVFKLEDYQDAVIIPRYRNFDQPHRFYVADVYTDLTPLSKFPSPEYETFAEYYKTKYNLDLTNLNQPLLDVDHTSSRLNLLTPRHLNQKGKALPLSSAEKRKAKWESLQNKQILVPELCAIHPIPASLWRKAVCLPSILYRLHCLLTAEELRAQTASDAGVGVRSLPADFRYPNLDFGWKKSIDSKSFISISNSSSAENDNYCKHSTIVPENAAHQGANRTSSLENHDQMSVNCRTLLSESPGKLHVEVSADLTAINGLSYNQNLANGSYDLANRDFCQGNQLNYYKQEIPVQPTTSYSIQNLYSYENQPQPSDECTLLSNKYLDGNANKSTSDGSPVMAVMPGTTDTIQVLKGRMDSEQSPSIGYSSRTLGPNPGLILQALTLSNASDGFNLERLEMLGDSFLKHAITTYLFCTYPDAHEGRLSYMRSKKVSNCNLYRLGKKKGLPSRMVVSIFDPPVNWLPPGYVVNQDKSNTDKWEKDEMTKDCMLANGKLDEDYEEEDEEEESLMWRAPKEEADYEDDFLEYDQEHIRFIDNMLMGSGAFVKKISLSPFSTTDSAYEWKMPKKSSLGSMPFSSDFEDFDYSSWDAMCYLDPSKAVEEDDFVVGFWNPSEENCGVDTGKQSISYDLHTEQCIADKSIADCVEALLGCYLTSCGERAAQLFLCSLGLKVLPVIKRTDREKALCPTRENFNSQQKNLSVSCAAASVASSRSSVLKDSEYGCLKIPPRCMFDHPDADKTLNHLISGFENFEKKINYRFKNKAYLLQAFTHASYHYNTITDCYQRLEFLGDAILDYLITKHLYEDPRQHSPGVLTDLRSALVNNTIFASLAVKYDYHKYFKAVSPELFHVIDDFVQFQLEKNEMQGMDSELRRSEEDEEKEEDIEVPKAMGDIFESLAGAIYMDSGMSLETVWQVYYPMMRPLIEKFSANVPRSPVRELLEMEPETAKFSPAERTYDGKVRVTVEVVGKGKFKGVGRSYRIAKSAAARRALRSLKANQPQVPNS


Assays:
Conditions in all cases: tags: N-terminal His6 removed by site-specific protease, baculovirus/Sf9
[1] = molecular target: T1, ΔDEAD human Dicer (lacks DExD/H-box …); assay: filter; within three-fold of full-length; 5 mM EDTA; exact Kd only in figure
Experimental: (§1) After dried, the bound (on Protran) or free (on Nytran) RNAs were detected and quantified with Phosphoimager (GE Healthcare). Percentage of bound RNAs was calculated by 100 multiplied by the ratio of radioactivity (volumes) detected on the Protran membrane over the total input volumes (radioactivity). The bound RNAs (%) (Y-axle) were plotted against protein concentrations (X-axle). K_d was determined by global fitting to the equation of kobsd = (kmax ×[Dicer])(K_{1/2} + [Dicer])^-1, here $kobsd$ is the observed rate constant at a particular protein concentration, $kmax$ is the maximal rate constant with saturating protein, and K_{1/2} (or K_d) is the protein concentration that provides half the maximal rate. Curve fitting was conducted with KleidaGraph (Synery Software).
(§2) RNA. […] These values are similar to those measured previously (Provost et al, 2002; Vermeulen et al, 2005). […] The protein lacking both the DExD/H-box domain and the dsRBD (2DD) bound ~3-4 fold more weakly to either substrate relative to full-length Dicer (FIG. 3A-C). It is possible that this severely truncated protein is generally destabilized, or that the DExD/H-box domain plays a small but measurable role in substrate binding.

[2] = molecular target: ΔDUF human Dicer (lacks DUF283) (Homo sapiens, UniProt Q9UPY3 SEQ:1-1922, del630-709); assay: as above
Experimental: as §1, §2

ΔdsRBD human Dicer = ΔdsRBD human Dicer (Homo sapiens, UniProt Q9UPY3 SEQ:1-1922, del1844-1922); assay: filter; within three-fold of full-length; dsRBD deletion did not significantly affect binding; 5 mM EDTA
Experimental: A serial dilution of proteins were incubated in a buffer containing 20 mM Tris-Cl (pH 7.5), 25 mM NaCl, 5 mM EDTA, 1 mM dithiothreitol (DTT), 1% glycerol and ~0.5-1 nM (1500 c.p.m.) of ^32P-labeled duplex RNA substrate (one strand was labeled) at room temperature for 60 min […] After this incubation, 25 µl of each reaction were used for dot-blotting, which was conducted in a dot-blot apparatus equipped with 3 membranes of Tuffryn, Protran and Nytran (from top to bottom). After dried, the bound (on Protran) or free (on Nytran) RNAs were detected and quantified with Phosphoimager (GE Healthcare). Percentage of bound RNAs was calculated by 100 multiplied by the ratio of radioactivity (volumes) detected on the Protran membrane over the total input volumes (radioactivity). The bound RNAs (%) (Y-axle) were plotted against protein concentrations (X-axle). K_d was determined by global fitting to the equation of kobsd = (kmax ×[Dicer])(K_{1/2} + [Dicer])^-1, here $kobsd$ is the observed rate constant at a particular protein concentration, $kmax$ is the maximal rate constant with saturating protein, and K_{1/2} (or K_d) is the protein concentration that provides half the maximal rate. Curve fitting was conducted with KleidaGraph (Synery Software).
RNA. […] These values are similar to those measured previously (Provost et al, 2002; Vermeulen et al, 2005).

[3] = label: 5'-32P on one strand, perfect duplex with 2-nt 3' overhangs on both ends

ΔdsRBD human Dicer, sequence (Q9UPY3 1-1843, stated change not applied): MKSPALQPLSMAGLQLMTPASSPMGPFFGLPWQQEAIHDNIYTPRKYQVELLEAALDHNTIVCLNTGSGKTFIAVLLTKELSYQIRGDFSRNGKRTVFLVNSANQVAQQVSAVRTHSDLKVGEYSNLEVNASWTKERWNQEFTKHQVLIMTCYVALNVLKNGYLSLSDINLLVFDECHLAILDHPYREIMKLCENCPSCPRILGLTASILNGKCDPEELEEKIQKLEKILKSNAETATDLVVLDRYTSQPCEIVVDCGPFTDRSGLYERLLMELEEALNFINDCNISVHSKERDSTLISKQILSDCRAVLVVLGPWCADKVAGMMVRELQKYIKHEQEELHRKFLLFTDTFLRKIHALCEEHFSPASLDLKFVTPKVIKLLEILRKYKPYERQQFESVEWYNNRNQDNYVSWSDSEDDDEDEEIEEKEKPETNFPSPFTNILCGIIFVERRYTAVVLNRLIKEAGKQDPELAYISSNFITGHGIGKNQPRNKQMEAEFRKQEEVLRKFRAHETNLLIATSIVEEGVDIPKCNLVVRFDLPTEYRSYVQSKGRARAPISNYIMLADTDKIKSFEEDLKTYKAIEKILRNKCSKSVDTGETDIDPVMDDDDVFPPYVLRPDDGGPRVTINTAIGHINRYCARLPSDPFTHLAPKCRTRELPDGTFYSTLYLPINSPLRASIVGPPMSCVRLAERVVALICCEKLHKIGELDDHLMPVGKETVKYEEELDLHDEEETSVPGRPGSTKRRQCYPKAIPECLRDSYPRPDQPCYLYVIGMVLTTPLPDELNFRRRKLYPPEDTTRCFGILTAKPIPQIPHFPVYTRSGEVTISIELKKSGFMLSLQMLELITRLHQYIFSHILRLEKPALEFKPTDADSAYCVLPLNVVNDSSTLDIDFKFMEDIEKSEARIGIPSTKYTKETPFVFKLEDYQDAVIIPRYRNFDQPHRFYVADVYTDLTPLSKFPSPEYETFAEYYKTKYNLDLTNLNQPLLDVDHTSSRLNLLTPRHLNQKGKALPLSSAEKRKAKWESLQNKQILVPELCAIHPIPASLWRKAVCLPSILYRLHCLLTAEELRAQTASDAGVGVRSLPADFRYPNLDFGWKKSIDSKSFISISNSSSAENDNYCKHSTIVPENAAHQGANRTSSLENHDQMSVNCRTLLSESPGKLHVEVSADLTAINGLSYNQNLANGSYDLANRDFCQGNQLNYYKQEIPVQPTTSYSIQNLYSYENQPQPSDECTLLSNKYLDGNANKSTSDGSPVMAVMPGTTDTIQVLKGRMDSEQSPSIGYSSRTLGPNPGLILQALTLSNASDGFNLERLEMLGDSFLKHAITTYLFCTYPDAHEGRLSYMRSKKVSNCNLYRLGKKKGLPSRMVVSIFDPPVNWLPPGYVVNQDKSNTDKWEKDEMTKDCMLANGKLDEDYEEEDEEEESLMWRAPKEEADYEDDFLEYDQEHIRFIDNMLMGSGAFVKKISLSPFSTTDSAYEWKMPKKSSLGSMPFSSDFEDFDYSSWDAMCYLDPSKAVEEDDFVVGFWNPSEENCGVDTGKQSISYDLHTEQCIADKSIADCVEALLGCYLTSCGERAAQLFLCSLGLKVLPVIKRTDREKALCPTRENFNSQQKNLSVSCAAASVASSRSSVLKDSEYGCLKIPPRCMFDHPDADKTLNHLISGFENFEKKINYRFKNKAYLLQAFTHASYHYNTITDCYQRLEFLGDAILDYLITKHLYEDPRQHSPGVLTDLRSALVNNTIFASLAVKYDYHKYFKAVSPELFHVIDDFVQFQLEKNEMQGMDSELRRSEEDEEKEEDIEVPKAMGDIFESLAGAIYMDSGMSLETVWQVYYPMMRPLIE

Binder	Kd relative to full-length Dicer (fold) [1, 3]	Kd relative to full-length Dicer (fold) [2, 3]	Kd relative to full-length Dicer (ΔdsRBD human Dicer; [3])	Kd relative to full-length Dicer (fold) ([1]; label: 5'-32P, hairpin)	Kd relative to full-length Dicer (fold) ([2]; label: 5'-32P, hairpin)	Kd relative to full-length Dicer (ΔdsRBD human Dicer; label: 5'-32P, hairpin)
37ab duplex RNA (dsRNA) RNA 1: UGAGGUAGUAGGUUGUAUAGUUUGAAAGUUCACGAUU RNA 2: UCGUGAACUUUCAAACUAUACAACCUACUACCUCAUU	≤ 3 fold of full-length Kd (75 nM)	≤ 3 fold of full-length Kd (75 nM)	≤ 3 fold of full-length Kd (75 nM)	–	–	–
pre-hlet-7 hairpin RNA (ssRNA) RNA: UGAGGUAGUAGGUUGUAUAGUUUUAGGGUCACACCCACCACUGGGAGAUAACUAUACAAUCUACUGUCUUACC	–	–	–	≤ 3 fold of full-length Kd (30 nM)	≤ 3 fold of full-length Kd (30 nM)	≤ 3 fold of full-length Kd (30 nM)
